T1: soluble human LIFR (leukemia inhibitory factor receptor) (human, UniProt P42702 45-833)
T1 construct: extracellular domain; Bought; also called soluble LIFR
T1 sequence (looked up): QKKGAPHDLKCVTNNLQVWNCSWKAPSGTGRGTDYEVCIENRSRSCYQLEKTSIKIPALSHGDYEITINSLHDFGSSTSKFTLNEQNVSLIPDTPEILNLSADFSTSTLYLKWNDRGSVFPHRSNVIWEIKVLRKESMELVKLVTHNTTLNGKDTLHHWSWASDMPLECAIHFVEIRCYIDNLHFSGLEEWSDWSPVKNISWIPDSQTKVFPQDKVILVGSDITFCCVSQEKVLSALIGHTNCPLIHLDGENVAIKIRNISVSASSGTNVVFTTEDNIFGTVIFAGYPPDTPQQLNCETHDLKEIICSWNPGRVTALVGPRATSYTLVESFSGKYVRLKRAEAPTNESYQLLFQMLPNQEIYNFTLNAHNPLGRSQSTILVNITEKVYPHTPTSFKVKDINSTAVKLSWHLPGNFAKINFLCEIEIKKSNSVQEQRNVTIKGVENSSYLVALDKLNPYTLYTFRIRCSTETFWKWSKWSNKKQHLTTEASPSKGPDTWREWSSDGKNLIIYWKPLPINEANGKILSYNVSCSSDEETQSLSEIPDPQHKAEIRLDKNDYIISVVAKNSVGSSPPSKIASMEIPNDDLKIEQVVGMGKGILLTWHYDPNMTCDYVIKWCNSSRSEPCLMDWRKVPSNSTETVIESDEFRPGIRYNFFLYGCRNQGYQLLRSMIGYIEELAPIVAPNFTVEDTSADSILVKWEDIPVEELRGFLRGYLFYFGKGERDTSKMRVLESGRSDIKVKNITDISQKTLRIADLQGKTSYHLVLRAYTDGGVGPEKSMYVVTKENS

B1: OSM-WT ('AGA' modified human Oncostatin M, referred to as wild-type OSM) (ligand)
chain: AAIGSCSKEYRVLLGQLQKQTDLMQDTSRLLDPYIRIQGLDVPKLREHCRERPGAFPSEETLRGLGRRGFLQTLNATLGCVLHRLADLEQRLPKAQDLERSGLNIEDLEKLQMARPNILGLRNNIYCMAQLLDNSDTAEPTKAGAGASQPPTPTPASDAFQRKLEGCRFLHGYHRFMHSVGRVFSKWGESPN
notes: also called hOSM with AGA modification; not shown: N-terminal FLAG tag left after thrombin removal of GST
B2: OSM-M2 (OSM with BC loop truncated from 12 to 4 amino acids) (ligand)
chain: AAIGSCSKEYRVLLGQLQKQTDLMQDTSRLLDPYIRIQGLDVPKLREHCRERPGAFPSEETLRGLGRRGFLQTLNATLGCVLHRLADLEQRLGGGNIEDLEKLQMARPNILGLRNNIYCMAQLLDNSDTAEPTKAGAGASQPPTPTPASDAFQRKLEGCRFLHGYHRFMHSVGRVFSKWGESPN
notes: Made from the 'AGA' modified OSM template; lacks the thrombin site; not shown: N-terminal FLAG tag left after thrombin removal of GST
B3: human leukemia inhibitory factor (LIF) (ligand)
chain: not shown
notes: Purified recombinant protein; also called hLIF
B4: OSM-M1 (OSM with BC loop truncated from 12 to 7 amino acids) (ligand)
chain: AAIGSCSKEYRVLLGQLQKQTDLMQDTSRLLDPYIRIQGLDVPKLREHCRERPGAFPSEETLRGLGRRGFLQTLNATLGCVLHRLADLEQRLGAPSGLNIEDLEKLQMARPNILGLRNNIYCMAQLLDNSDTAEPTKAGAGASQPPTPTPASDAFQRKLEGCRFLHGYHRFMHSVGRVFSKWGESPN
notes: as for B2

This note sets out measurements from patent US20100310509A1 (published 2010).

This assay deals with T1, soluble human LIFR (leukemia inhibitory …). The assay can be described thus: ELISA, apparent KD (KD,App), cytokine coated, soluble LIFR titrated (direct). The procedure:
For direct interaction studies, cytokines (LIF, OSM-WT, OSM-M1 or OSM-M2) were immobilized on the 96 well ELISA plate by incubating the wells with 200 μl of 5 nM cytokine solution in PBS, pH 7.4 overnight at 4° C. The wells were then blocked with blocking buffer (4% BSA in PBS) for 1 hour at room temperature. After washing with 250 μl of washing buffer (0.05% Tween-20 in PBS) 3 times, the cytokines were treated with a series of concentrations of soluble human LIFR (Catalog #249-LR-050/CF, R&D Systems, Minneapolis, Minn.) or OSMR (Catalog #4389-OR-050, R&D Systems, Minneapolis, Minn.) in 150 μl of blocking buffer for 2 hours. The wells were then incubated with 150 μl of polyclonal anti-hLIFR (Catalog #AF249-NA, R&D Systems, Minneapolis, Minn.) or anti-hOSMR (Catalog #AF662, R&D Systems, Minneapolis, Minn.) in blocking buffer for 1 hour followed by incubation with 150 μl of HRP conjugated […] antibody (GE Healthcare, Uppsala, Sweden) in blocking buffer for 30 minutes. The wells were then washed 3 times with washing buffer and treated with 100 μl of chromogenic Slow-TMB® HRP substrate (Catalog #34024, Thermo Scientific Fisher, Rockford, Ill.) for 15 minutes. The reaction was then stopped by adding 100 μl of 2M H₂SO₄ and the absorbance of each well at 450 nm was read immediately using a UV detector (iMARK® Microplate Reader, Biorad, Hercules, Calif.). For interactions of higher order, soluble human gp130 (Catalog #671-GP-100, R&D Systems, Minneapolis, Minn.) was immobilized on 96 well ELISA microplates by incubating the wells with 200 μl of 1 nM gp130 solution (in PBS, pH 7.4) overnight at 4° C. The wells were then blocked with 150 μl of blocking buffer (4% BSA in PBS) for 1 hour at room temperature. After washing with 250 μl of washing buffer 3 times, gp130 was treated with saturating amounts of the cytokines (500 nM hLIF, 200 nM OSM-WT, 200 nM OSM-M1 or 200 nM OSM-M2) in a volume of 150 μl of blocking buffer for a period of 2 hours. The cytokine solution was discarded and a series of concentrations of soluble human LIFR or OSMR in a final volume of 150 μl blocking buffer were then added to the wells and the incubation was continued for another 1 hour. After washing with 250 μl of washing buffer 3 times, the wells were then incubated with 150 μl of polyclonal anti-hLIFR or anti-hOSMR in blocking buffer for 1 hour.
As for B1, the Kd amounted to 60 nM.

For B2, the Kd came to 8.75 nM.

Consider B3, for which the Kd amounted to 8.58 nM.

For B4, the Kd came to 10.1 nM.
